Legend:
[1] = Peptide gelation study (vial inversion method); assay type: physicochemical; conditions: for Time to form hydrogel: 4 mg/mL, room temperature, in the presence of PBS
Method: The preweighed (as per the required final concentration) peptide powder was dissolved in 0.9 mL of Milli-Q® water in a glass vial. The solution was vortexed for 5-10 s to obtain a clear and homogeneous solution. To this peptide solution, 0.1 mL of PBS buffer (10×, w/o Ca^2+ and Mg^2+) was added. To ensure a homogeneous distribution of buffer in the solution, the glass vial was further vortexed for 2-3 s. The glass vial was kept undisturbed on the bench, and hydrogel formation was observed using the vial inversion method, as shown in FIG. 9. The pH of the solutions of IVFK (SEQ ID NO. 1) and IVZK (SEQ ID NO. 2) was 5.57 and 5.48 at a 5 mg/mL concentration, respectively. After the addition of PBS, the pH changed to 7.7 and 7.6 for IVFK (SEQ ID NO. 1) and IVZK (SEQ ID NO. 2), respectively. The pH of the Milli-Q® water and phosphate buffer used was 6.7 and 7.4, respectively.

SEM of microgels = assay type: physicochemical; conditions: for Microgel surface fiber bundle thickness: SEM
Method: The surface topography of the microgels was visualized using a FEI Magellan XHR Scanning Electron Microscope with an accelerating voltage of 3 kV. The SEM samples were prepared by dehydrating the peptide microgels in a gradually increasing ethanol concentration. The dehydrated microgels were then dried in a Leica EM CPD300. The dried peptides were sputter coated with 5 nm […] before imaging.

HUVECs = experiment: 3D SUP hydrogel bead assay coculture (angiogenesis in vitro assay); assay type: cell-based, human; conditions: for Endothelial network formation in bulky hydrogel: after 20 days of coculture, HUVEC-laden microgels, HDFn-loaded bulky hydrogel
Method: This assay was done by iterating the 4 combinations between SUP bulk-hydrogels ((3) and SUP microgels (p) (i.e., β-IVFK (SEQ ID NO. 1)+μ-IVFK (SEQ ID NO. 1); β-IVFK (SEQ ID NO. 1)+μ-IVZK (SEQ ID NO. 2); βIVZK (SEQ ID NO. 2)+μ-IVFK (SEQ ID NO. 1); β-IVZK (SEQ ID NO. 2)+μ-IVZK (SEQ ID NO. 2)). The next procedure is the same for all combinations using as an example β-IVFK (SEQ ID NO. 1)+μ-IVFK (SEQ ID NO. 1). HUVECs were cultured on μ-IVFK (SEQ ID NO. 1) for 24 h as described previously. By the bead assay seeding day, IVFK (SEQ ID NO. 1) powder for β-hydrogel was dissolved at 8 mg/mL in sterile water 1 h before seeding. Meanwhile, HDFn cells were harvested and resuspended in 2 xPBS at 1.2×10^6 HDFn cells/mL, and simultaneously, HUVEC laden μ-IVFK (SEQ ID NO. 1) were spun down in a tube at 50 g for 5 min. The supernatant was discarded, and 200 μL of HUVEC-ladenμ-IVFK (SEQ ID NO. 1) was mixed with 200 μL of HDFn cells in 2×PBS. Immediately, 100 μL of IVFK (SEQ ID NO. 1) solution at 8 mg/mL was poured on the culture dish and mixed with 100 μL of HUVEC-laden μ-IVFK (SEQ ID NO. 1) with HDFn cells in 2×PBS. The 3D hydrogel bead assay coculture was incubated at 37° C. for 10 min to guarantee β-IVFK (SEQ ID NO. 1) gelation. The final concentration of β-IVFK (SEQ ID NO. 1) was 4 mg/mL. Afterward, 2 mL of EGM-2 (EBM supplemented with singleQuots) was added to each dish containing the 3D hydrogel bead assay coculture, and the medium was changed every other day until fixation for immunofluorescence on culture day 8 and day 21.
The medium was removed from the 3D SUP hydrogel bead assay coculture samples and incubated with PBS at 37° C. for 15 min. Samples were fixed with 4% formaldehyde (v/v) in PBS for 30 min at 22° C. and washed with PBS for 15 min at 22° C. under rocking. Later, samples were detached from the bottom of the plate using a bent spatula and transferred to individual wells in a 24-well plate where they were permeabilized with 0.5 mL per well of (v/v) Triton® X-100 in PBS for 1 h at 22° C. under rocking. After, samples were blocked overnight at 4° C. in a wet chamber under rocking with 0.5 mL per well of 10% (v/v) goat serum in PBS containing 0.01% (v/v) Triton® X-100. From the next step and on, samples were protected from light all of the time. Samples were incubated for 36 h at 4° C. in a wet chamber under rocking with anti-CD31 Alexa® Fluor 647 and anti-Vimentin Alexa® Fluor 488, both diluted 1/100 in blocking buffer. Samples were washed with PBS for […] at 22° C. with shaking, replacing the PBS every hour. Then, cell nuclei were stained with 0.1 μg/mL DAPI in PBS for 5 min at 22° C. and washed three times with PBS for 5 min Finally, samples were transferred to 27 mm glass bottom dishes and imaged with a CLSM Zeiss® 710 or 880. Imaging of the entire sample was done by whole mount Z-stack tile scanning, and zoom-in images were Z-stack imaging with orthogonal views. Maximum intensity projections of the whole mount and zoom-in are presented.

With “Ac-Ile-Val-Cha-Lys-NH2 (IVXK; HELM PEPTIDE1{[ac].I.V.[Cha].K.[am]}$$$$V2.0; SMILES CC[C@H](C)[C@H](NC(C)=O)C(=O)N[C@H](C(=O)N[C@@H](CC1CCCCC1)C(=O)N[C@@H](CCCCN)C(N)=O)C(C)C) [IVZK, self-assembling ultrashort tetrapeptide, Z = cyclohexylalanine, forms hydrogels and microgels]” as the substance, how does the “Critical gelation concentration in bulky hydrogels” value [1] read?
The value was 0.3 wt %.

What about the “Time to form hydrogel” value [1] of the same substance?
The value was 10 min.

And the “Microgel stability through SEM sample preparation” value (SEM of microgels; 1.5 wt %, critical point drier)?
The value was “stable enough to maintain their 3D spherical structure”.

What about the “Microgel surface fiber bundle thickness” value (SEM of microgels) of the same substance?
The value was “around 20 nm”.

What about the “Endothelial network formation in bulky hydrogel” value (HUVECs) of the same substance?
The value was “developed an evident endothelial network”.

What about the Endothelial sprouting (HUVECs; soft bulk hydrogel 4 mg/mL, after 8 days in culture) of the same substance?
The Endothelial sprouting was “show initial signs of sprouting”.

For “Ac-Ile-Val-Phe-Lys-NH2 (Ac-IVFK-NH2) [self-assembling ultrashort tetrapeptide, forms hydrogels and microgels]”, which “Critical gelation concentration in bulky hydrogels” value [1] is on record?
Its value is 0.4 wt %.

What about the “Time to form hydrogel” value [1] of the same substance?
Its value is 10 min.

What about the “Microgel surface fiber bundle thickness” value (SEM of microgels) of the same substance?
Its value is “around 20 nm”.

And the “Endothelial network, comparison of bulky hydrogels” value (HUVECs; IVFK versus IVZK bulky hydrogel, 20 days of coculture)?
The value was “more extended and complex”.

And the “Lumen (branched hollow structures), comparison of bulky hydrogels” value (HUVECs; IVFK versus IVZK bulky hydrogels)?
Its value is “more visible and also larger”.

What about the “Endothelial network formation in bulky hydrogel” value (HUVECs) of the same substance?
Its value is “developed an evident endothelial network”.
